Our source for the self-cleavage values is the RNAGym collection of RNA variant scans (doi:10.7554/elife.80360).

Sequences and labels used below:
B1: HDV Ribozyme (parent)
chain: GGCCGGCAUGGUCCCAGCCUCCUCGCUGGCGCCGGCUGGGCAACAUUCCGAGGGGACCGUCCCCUCGGUAAUGGCGAAUGGGACCCA

The variants in the series derive from B1. Put plainly: self-cleavage, relative activity (ratio to wild type); higher = more cleavage; co-transcriptional.
Take GGCCGGCAUGGUCCCUGCCUCCUCGCUGGCGCCGGCUGGGCAACAUUCCGAGGGGACCGUCCGCUCGGUAAUGGCGAAUGGGACCCA: the self-cleavage amounted to 0.831.

On to GGCCGGCAUGGUCCCAGCCUCCUCGCUGGCGCCGGCGGGGCAACAUUCCGAGGGGACCGUCCCCUCGGUAAUGGCGAAUGGGACCAA, for which the self-cleavage amounted to 0.185. In the case of GGCCGGCAUGGUCCCAGCCUCCUCGCUGGCGCCGGCUGGGCAACAUUCCGAGGGGAGCGUCCCCUCGUUAAUGGCGAAUGGGACCCA, the self-cleavage was 1.01. For GGGCGGCAUGGACCCAGCCUCCUCGCUGGCGCCGGCUGGGCAACAUUCCGAGGGGACCGUCCCCUCGGUAAUGGCGAAUGGGACCCA the value was 0.0462; for GGCCGGCAUGGUCCCAGCCUCCUCGCUGGCGCCGGCUGGGCAACAUUCCGAGGGGACCGUCCCCUCGGUAACGGCGAAUGGCACCCA, 0.26; for CGCCGGCAUGGUCCCAGCCUCCUCGCUGGCGCCGGCUGGGCAACAUUCCGAUGGGACCGUCCCCUCGGUAAUGGCGAAUGGGACCCA, 0.219. As to GGCCGGCAAGGUCCCAGCCUCCUCGCUGGCGCCGGCUGGGCAACAUUCCGAGGGGACCGUCCCCUCGGUAAUGGCGAAUGGGGCCCA, the self-cleavage turned out to be 0.67. For the variant GGCCGGCAGGGUCCCAGCCUCCUCGCUGGCGCCGGCUGGGCAACAUUCUGAGGGGACCGUCCCCUCGGUAAUGGCGAAUGGGACCCA, the self-cleavage was 0.776. For GGCCGGCAUGGUCCCAGCCUCCUCGCCGGCGCCGGCUGGGCAACAUUCCGAGGGGACCGUCCCCUCGGUAAUGGCGAAUGGGGCCCA the value was 0.727; for GGCCGGCAUGGUCCCAGCCUCCUCGCUGGCGCCGGCUGGGCAACAUUCCGACGGGACCGUCCCCUCGGAAAUGGCGAAUGGGACCCA, 1.21; for GGCAGGCAUGGUCCCUGCCUCCUCGCUGGCGCCGGCUGGGCAACAUUCCGAGGGGACCGUCCCCUCGGUAAUGGCGAAUGGGACCCA, 0.0665.

On to GGCCGGCAUGGCCUCAGCCUCCUCGCUGGCGCCGGCUGGGCAACAUUCCGAGGGGACCGUCCCCUCGGUAAUGGCGAAUGGGACCCA, for which the self-cleavage was found to be 0.277. For GGCCGGCAUGGUCCCAGCCUCCUCGCUGGCGCCGGCUGGCCAACAUUCCGAGGGGACCGGCCCCUCGGUAAUGGCGAAUGGGACCCA the value was 0.271. The figure for GGCCGGCAUGGUCCCAGCCUCCUCGCUGGCGCCGGCUGGGCAACAUUCCGAGGGGACCGUCCCCUCGGUUAUGGAGAAUGGGACCCA is 0.0898; for GGCCGGCGUGGUCUCAGCCUCCUCGCUGGCGCCGGCUGGGCAACAUUCCGAGGGGACCGUCCCCUCGGUAAUGGCGAAUGGGACCCA it is 0.997; for GGCCGGCAUGGUCCCAGCCUCCUCGCUGGCGCCGGCUGGGCAACAUUCCGAGGGGACCGUCCGCUCGGUAAUGGCGAAUGGCACCCA it is 0.136. For GGCCGGCAUGGUCCCAGCCUCCUGGCUGGCGCCGGCUGGGCAACAUUCCGAGGGGACCAUCCCCUCGGUAAUGGCGAAUGGGACCCA the value was 0.0955; for GGCCGGCAUGGUCCCAGCCUCCUCGCUGGCGCCGGCUGGGCAACAUUCCGAGGGGACCGUCCCCUCGGUGACGGCGAAUGGGACCCA, 0.54; for GGCCGGCAUGGUCCCAGCCUCCUCGCUGGCGCCGGCUGGGCAACACUCCGAGGGGACCGGCCCCUCGGUAAUGGCGAAUGGGACCCA, 0.755. In the case of GGCCGGCAUGGUCCCAGCCUCCUCGCUGGCGCCGGCUGGUCAACUUUCCGAGGGGACCGUCCCCUCGGUAAUGGCGAAUGGGACCCA, the self-cleavage was 0.361.

Consider GGCCGGCAUGGUCCCAGCCUCCUCGCUGGCGUCGGCUGGGGAACAUUCCGAGGGGACCGUCCCCUCGGUAAUGGCGAAUGGGACCCA, for which the self-cleavage was 0.429. For GGCCGUCAUGGUCCCAGCCUCCUCGAUGGCGCCGGCUGGGCAACAUUCCGAGGGGACCGUCCCCUCGGUAAUGGCGAAUGGGACCCA the value was 0.397; for GGCCGGCAUGGUCCCAGCCUCCUCGCUGGCGCCGGCUGGGCAACAUUCCGAGGGGACCGUCCCCUCGGUAAUAGCGAAUGGAACCCA, 0.18; for GGCCGGCAUGGUGCCAGCCUCCUCGCUGGCGCCGGCUGGGCAACAUUCCGAGGGGACCGUCCCCUCGGUAAUGGCGGAUGGGACCCA, 0.199. The figure for GGCCGGCAUGGUCCCAGCUUCCUCGCUGGCGCCGGCUGUGCAACAUUCCGAGGGGACCGUCCCCUCGGUAAUGGCGAAUGGGACCCA is 0.0449.

For the variant GGCCGGCAUGGUCCCAGCCUCCUCGCUGGCGACGGCUGGGAAACAUUCCGAGGGGACCGUCCCCUCGGUAAUGGCGAAUGGGACCCA, the self-cleavage was 0.089. The figure for GGCCGGCAUGGUCCCAGCCUCCUCGCUGGCGCCGGCUGGGCAACAUUCCGAGGGGACCGUCCCCUCGGUAAUGGGGAAUGGGAACCA is 0.259; for GGCCGGCGUGGUCCCAGCAUCCUCGCUGGCGCCGGCUGGGCAACAUUCCGAGGGGACCGUCCCCUCGGUAAUGGCGAAUGGGACCCA it is 0.107. With GGCCGGCAUGGUCCCAGCCUCCUCGCUGGCGCCGGCUGGGCAGCAAUCCGAGGGGACCGUCCCCUCGGUAAUGGCGAAUGGGACCCA, the self-cleavage was determined as 0.782. The figure for GGCCGGCAUGGUCCCAGCCUCCUAGCUGGCGCCGGCUGGGCAACAUUCCGAGGGGACCGUCCCCUCGGUAAUCGCGAAUGGGACCCA is 0.211.

With GGCCGGCAUGGUCCCAGCCUCCUCGCUGGCGCCGGCUGGGCAACAUUCCGAGGGGACAGUCCCCUCGGUAAGGGCGAAUGGGACCCA, the self-cleavage is 1.09. The figure for GGCCGGCAUGGUCCCAGCCUCCUCGCUGCUGCCGGCUGGGCAACAUUCCGAGGGGACCGUCCCCUCGGUAAUGGCGAAUGGGACCCA is 0.0415; for GGCCGGCAUGGUCCCAGGCUCCUCGCUGGCCCCGGCUGGGCAACAUUCCGAGGGGACCGUCCCCUCGGUAAUGGCGAAUGGGACCCA it is 0.0449. As to GGCCGGCAUGUUCCCAGCCUCCGCGCUGGCGCCGGCUGGGCAACAUUCCGAGGGGACCGUCCCCUCGGUAAUGGCGAAUGGGACCCA, the self-cleavage is 0.134.

Take GGCCGGCAUGGUCCCACCCUCCUCGCUGGCGCCGGCUGGGCAACAUUCCGAGGGGACCGUCCCCUCGGUAAUGGCGAACGGGACCCA: the self-cleavage worked out at 0.427. For GGCCGGCAUGGUCCCAGCCUCCUCGCUGGCGCCGGCUGGGUAACAUUCCGAGGGGACCAUCCCCUCGGUAAUGGCGAAUGGGACCCA the value was 1; for GGCCGGCAUGGUCCCAGCCUCCUCGCUGGCGCCGGCUGGGCAACAUUCCGAGGGGACCGUCCCCUCGGUAAUCGCGAAUGGGACCCA, 0.505; for GGCCGGCAUUGUCCCAGCCUCCUCGGUGGCGCCGGCUGGGCAACAUUCCGAGGGGACCGUCCCCUCGGUAAUGGCGAAUGGGACCCA, 0.677. Consider GGCCGGCAUGGUCCCAGCCUGCUCGCUGACGCCGGCUGGGCAACAUUCCGAGGGGACCGUCCCCUCGGUAAUGGCGAAUGGGACCCA, for which the self-cleavage is 0. The figure for GGCCGGCAUGGUCCCAGCCUCCUCGCUGGCGACGGCUGGGCAACAUUCCGAGGGGACCGUCCCCUCGAUAAUGGCGAAUGGGACCCA is 0.185; for GGCCGGCAUGGUCCCAGCCUCCUCGCUGCCGUCGGCUGGGCAACAUUCCGAGGGGACCGUCCCCUCGGUAAUGGCGAAUGGGACCCA it is 0.119; for GGCCGGCAUGGUCCCAGCCUCCUCGCUGGCGCCGGCUGGGCAACAUUGCGAGGGGACAGUCCCCUCGGUAAUGGCGAAUGGGACCCA it is 1.14. On to GGCCGGCAUGGUCCCAGCCUCCUCGAUGGCGCCGGCUCGGCAACAUUCCGAGGGGACCGUCCCCUCGGUAAUGGCGAAUGGGACCCA, for which the self-cleavage is 0.122. The figure for GGCCGGCAUGGUCCCAGCCUCCUCGCUGGCGCCGGCUGGGGAUCAUUCCGAGGGGACCGUCCCCUCGGUAAUGGCGAAUGGGACCCA is 0.277; for CGCCGGCAUGGUCCCAGCCUCCUCGCUGGCGCCGGCUGGGCAACAUUCCGCGGGGACCGUCCCCUCGGUAAUGGCGAAUGGGACCCA it is 0.133. Turning to GGCCGGCAUCGUCCCAGCCUCCUCGCUGGCGCCGGCUGGGCAACAUUCCGAGGCGACCGUCCCCUCGGUAAUGGCGAAUGGGACCCA, the self-cleavage is 1.09.

As for GGCCGGCAUGGUCCCAGCCUCCUCGCUGGCGCCGGCUGGGUACCAUUCCGAGGGGACCGUCCCCUCGGUAAUGGCGAAUGGGACCCA, the self-cleavage came out at 0.831. The figure for GGCCGGCAAUGUCCCAGCCUCCUCGCUGGCGCCGGCUGGGCAACAUUCCGAGGGGACCGUCCCCUCGGUAAUGGCGAAUGGGACCCA is 0.855; for GGCCGGCAUGGUCCCAGCCUCCUCUCUGGCGCCGGCUGGGCAACAUUCCGAGGGGCCCGUCCCCUCGGUAAUGGCGAAUGGGACCCA it is 0.122. For GGCCGGCAUGGUCCCAGCCUCCUCGCUGGCGCCGGCUGAGCAACAUUCCGAGGGGACCGUCCCCUCGGUAAUGCCGAAUGGGACCCA the value was 0.147; for GGCCGGCAUGGUCCCAGCCUCCUCGCUGGCGCCGGCUGGGCAACAUUCCGAGAGGACCGUCCCCUCGGGAAUGGCGAAUGGGACCCA, 1.04; for GGCCGGCAUGGUCCCAGCAUCCUCGCUGGCGCCGGCUGGGCAACAUUCCGAGGGGACCGUUCCCUCGGUAAUGGCGAAUGGGACCCA, 0.0671. For GGCCGGCAUGGUGCCAGCCUCCUCGCUGGCGCCGGCUGGGCAACAUUCCGAGGGGACCGUCCCCUCGGUAAUGGCGAAUGGGACCCC the value was 0; for GGCCGGCAUGGUCCUAGCCUCCUCGCUGGCGCCGGCUGGGCAACAUUCCGAGGGGACCGUCCCCUCGGUAAUGGCGAUUGGGACCCA, 0.185. Regarding GGGCGGCAUGGUCCCAGGCUCCUCGCUGGCGCCGGCUGGGCAACAUUCCGAGGGGACCGUCCCCUCGGUAAUGGCGAAUGGGACCCA, the self-cleavage amounted to 0.0475. As for GGCCGGCAUGGUCCCAGCCUCCUCGCUGGCGCCGACUGGGCAACAUUCCGAGGGGACCGUCCCCUCGGUAAUGGCGAAUGUGACCCA, the self-cleavage was found to be 0.105.

With GGCGGGCAUGGUCCCAGCCUCCUCGCUGGCGCCGGCUGGGCAACAUUCCGAGGGGACCGUCCCCUCGGUAAUGGCGAAUAGGACCCA, the self-cleavage worked out at 0.0203.

As for GGCCGGCCUGGUCCCAGCCUCCUCGCUGGCGCCGGCUGGGCAACAUUCCGAGGGGACCGUCCCCUCGGUAAUGGCGAAUGGGAACCA, the self-cleavage worked out at 0.751. For the variant GGCCGGCAUGGUCCCAGCCUCCUCGCUGGCGCCGGCUGGGCAACAUUCCGAGGGGAACGUCCCCUCGGUAAGGGCGAAUGGGACCCA, the self-cleavage turned out to be 0.635.

On to GGCCGGCAUGGUCCCAGCCACCUCGCUGGCGCCGGCUGGGCAACAUUCCGAGGGGACCGUCCCCUCCGUAAUGGCGAAUGGGACCCA, for which the self-cleavage was found to be 0. The figure for GACCGGCAUGGUCCCAGCCUCCUCGCUGGCGCCGGCUGGGCAACAUUCCGAGGGGACCGUCCCCUCGGUAAUGGCGAACGGGACCCA is 0.0804. On to GGCCGGCAUGGUCCCAGCCGCCUCGCUGGCGCCGGCUGGGCAACAUUCCGAGGGGACCGUCCCCUCGGUAAUGGCGAAUGGGACUCA, for which the self-cleavage stood at 0.0554. The figure for GGCCGGCAUGGUCCCAGCCUCCUCGCUGGCGCCGGCUGGGCCACAUUCCGAGGGGACCGUCCCCUCGGUAAUGACGAAUGGGACCCA is 0.0652. As to GGCCGGCAUGGUCCCAGCCUCCUCGCUGGCGCCGGCUGGGCAACAGUCCGAGGGGCCCGUCCCCUCGGUAAUGGCGAAUGGGACCCA, the self-cleavage was 0.959.
